Three molecules from article PMC9482650, “Quantitative fragmentomics allow affinity mapping of interactomes” (Nature Communications, 2022) can be followed below.

Targets include FRMPD2_3, Q68DX3; MAGI1_2, Q96QZ7; GRASP, Q7Z6J2; LAP2, Q96RT1; LNX1_2, Q8TBB1; FRMPD2_2, Q68DX3; GRID2IP_2, A4D2P6; Inadl_6, Q8NI35; PICK1, Q9NRD5; SNX27, Q96L92.
Common to all, as to experiment: holdup assay
Holding throughout (design): key: below the threshold = too weak to quantify, mostly under pKd 3.1 to 4
Conditions in all cases: plain residues with an end cap or a label only (N-terminal biotin on a linker: ado-ado)

In the next experiment the target is T1, PDZD2_2, O15018.
T1 sequence (O15018 329-429, limits assumed, looked up): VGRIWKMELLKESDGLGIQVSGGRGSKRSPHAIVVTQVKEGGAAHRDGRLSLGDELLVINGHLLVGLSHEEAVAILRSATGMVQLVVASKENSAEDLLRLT

The target in the next experiment is T2, LIN7C, Q9NUP9.
T2 sequence (Q9NUP9 88-185, limits assumed, looked up): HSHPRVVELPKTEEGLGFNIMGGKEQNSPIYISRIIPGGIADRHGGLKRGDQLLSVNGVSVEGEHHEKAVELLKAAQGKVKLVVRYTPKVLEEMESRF

Another experiment concerns the target T3, MPDZ_10, O75970.
T3 sequence (O75970 1624-1722, limits assumed, looked up): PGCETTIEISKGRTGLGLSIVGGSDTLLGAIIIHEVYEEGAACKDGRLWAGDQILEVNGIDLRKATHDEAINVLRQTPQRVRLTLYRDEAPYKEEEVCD

In a further experiment the target is T4, GRIP1_4, Q9Y3R0.
T4 sequence (Q9Y3R0 467-571, limits assumed, looked up): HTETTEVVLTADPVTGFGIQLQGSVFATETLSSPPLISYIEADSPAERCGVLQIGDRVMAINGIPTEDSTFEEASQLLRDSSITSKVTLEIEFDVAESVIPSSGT

The target in a further experiment is T5, DLG3_2, Q92796.
T5 sequence (Q92796 221-321, limits assumed, looked up): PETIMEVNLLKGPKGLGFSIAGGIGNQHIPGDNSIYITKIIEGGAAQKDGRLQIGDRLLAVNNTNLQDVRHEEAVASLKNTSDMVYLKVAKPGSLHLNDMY

The target in the next experiment is T6, TIAM2, Q8IVF5.
T6 sequence (Q8IVF5 885-986, limits assumed, looked up): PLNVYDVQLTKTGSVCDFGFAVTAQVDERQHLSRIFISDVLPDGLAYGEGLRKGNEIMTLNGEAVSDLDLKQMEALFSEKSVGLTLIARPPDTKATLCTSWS

The target of a further experiment is T7, LIN7B, Q9HAP6.
T7 sequence (Q9HAP6 88-185, limits assumed, looked up): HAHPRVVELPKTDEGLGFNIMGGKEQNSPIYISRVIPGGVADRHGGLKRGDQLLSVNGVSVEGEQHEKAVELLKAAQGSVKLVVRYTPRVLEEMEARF

In another experiment the target is T8, APBA1_1, Q02410.
T8 sequence (Q02410 651-752, limits assumed, looked up): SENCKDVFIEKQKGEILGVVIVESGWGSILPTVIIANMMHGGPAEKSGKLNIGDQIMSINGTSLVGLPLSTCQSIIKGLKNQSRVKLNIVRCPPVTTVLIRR

The next experiment addresses T9, ARHGEF11, O15085.
T9 sequence (O15085 42-136, limits assumed, looked up): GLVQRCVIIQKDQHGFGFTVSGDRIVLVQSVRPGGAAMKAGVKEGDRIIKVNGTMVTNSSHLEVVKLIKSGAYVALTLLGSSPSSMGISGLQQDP

In a further experiment the target is T10, DVL3, Q92997.
T10 sequence (Q92997 244-331, limits assumed, looked up): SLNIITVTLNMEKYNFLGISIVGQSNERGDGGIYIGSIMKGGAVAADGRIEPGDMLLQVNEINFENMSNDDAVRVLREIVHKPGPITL

The next experiment deals with T11, MPDZ_5, O75970.
T11 sequence (O75970 695-796, limits assumed, looked up): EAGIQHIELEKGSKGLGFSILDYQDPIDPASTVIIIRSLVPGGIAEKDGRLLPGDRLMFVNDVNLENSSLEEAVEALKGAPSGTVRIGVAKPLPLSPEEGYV

A further experiment has as its target T12, TX1BP3, O14907.
T12 sequence (O14907 10-122, limits assumed, looked up): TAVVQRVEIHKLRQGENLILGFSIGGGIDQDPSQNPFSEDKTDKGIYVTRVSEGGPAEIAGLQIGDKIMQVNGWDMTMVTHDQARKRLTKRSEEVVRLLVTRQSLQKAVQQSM

The next experiment addresses T13, SNTB1, Q13884.
T13 sequence (Q13884 107-205, limits assumed, looked up): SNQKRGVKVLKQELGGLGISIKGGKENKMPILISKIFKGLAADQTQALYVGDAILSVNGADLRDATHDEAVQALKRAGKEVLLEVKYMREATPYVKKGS

FRMPD2_2, Q68DX3, sequence (Q68DX3 944-1038): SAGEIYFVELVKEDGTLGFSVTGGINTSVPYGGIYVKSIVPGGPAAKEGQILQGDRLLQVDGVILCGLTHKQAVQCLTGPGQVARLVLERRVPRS
GRASP, Q7Z6J2, sequence (Q7Z6J2 96-193): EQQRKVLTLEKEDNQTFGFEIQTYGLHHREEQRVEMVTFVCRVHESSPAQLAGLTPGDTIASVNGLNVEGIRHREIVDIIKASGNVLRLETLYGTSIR
PICK1, Q9NRD5, sequence (Q9NRD5 17-115): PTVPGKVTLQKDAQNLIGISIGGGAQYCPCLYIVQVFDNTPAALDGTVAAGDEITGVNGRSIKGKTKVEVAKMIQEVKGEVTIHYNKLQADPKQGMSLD
MAGI1_2, Q96QZ7, sequence (Q96QZ7 456-580): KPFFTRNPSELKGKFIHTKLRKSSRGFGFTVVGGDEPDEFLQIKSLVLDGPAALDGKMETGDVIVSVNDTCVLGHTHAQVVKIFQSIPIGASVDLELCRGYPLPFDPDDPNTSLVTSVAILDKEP
FRMPD2_3, Q68DX3, sequence (Q68DX3 1073-1166): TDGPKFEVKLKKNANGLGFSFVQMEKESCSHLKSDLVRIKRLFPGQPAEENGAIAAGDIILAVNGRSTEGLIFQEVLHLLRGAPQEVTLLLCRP
LNX1_2, Q8TBB1, sequence (Q8TBB1 371-470): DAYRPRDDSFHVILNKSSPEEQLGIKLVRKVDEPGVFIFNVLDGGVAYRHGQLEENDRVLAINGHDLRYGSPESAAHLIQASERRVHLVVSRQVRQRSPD
GRID2IP_2, A4D2P6, sequence (A4D2P6 272-370): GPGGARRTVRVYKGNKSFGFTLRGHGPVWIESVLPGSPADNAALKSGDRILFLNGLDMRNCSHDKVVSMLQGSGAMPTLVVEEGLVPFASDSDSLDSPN
Inadl_6, Q8NI35, sequence (Q8NI35 1058-1167): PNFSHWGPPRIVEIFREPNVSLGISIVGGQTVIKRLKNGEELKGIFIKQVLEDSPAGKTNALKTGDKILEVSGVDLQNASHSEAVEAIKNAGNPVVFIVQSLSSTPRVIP
LAP2, Q96RT1, sequence (Q96RT1 other isoform, or with tags, fused parts or gaps): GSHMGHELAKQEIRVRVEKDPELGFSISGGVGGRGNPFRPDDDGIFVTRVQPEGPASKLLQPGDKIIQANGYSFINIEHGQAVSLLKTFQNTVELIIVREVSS

B1: MCC, P23508 (peptide)
chain: SRPHTNETSL
In general, pKd refers to the negative decadic logarithm of the Kd, by convention in mol/L. On to B1, for which the pKd entry is “below the threshold” with PDZD2_2, O15018; “below the threshold” with FRMPD2_3, Q68DX3; 3.63 with MAGI1_2, Q96QZ7; 3.65 with LIN7C, Q9NUP9; 3.96 in the experiment with GRASP, Q7Z6J2; “below the threshold” with MPDZ_10, O75970. The pKd entry with LAP2, Q96RT1 was “below the threshold”; with GRIP1_4, Q9Y3R0, “below the threshold”; with LNX1_2, Q8TBB1, “below the threshold”; with DLG3_2, Q92796 it was 3.72; with TIAM2, Q8IVF5, “below the threshold”; with FRMPD2_2, Q68DX3 it was “below the threshold”. For the same molecule, the negative logarithm of the Kd (pKd) is 3.64 in the experiment with LIN7B, Q9HAP6; “below the threshold” in the experiment with APBA1_1, Q02410; 4.21 with GRID2IP_2, A4D2P6; 3.83 in the experiment with Inadl_6, Q8NI35; 4.3 with ARHGEF11, O15085; “below the threshold” with DVL3, Q92997. The pKd entry was “below the threshold” in the experiment with MPDZ_5, O75970; “below the threshold” in the experiment with PICK1, Q9NRD5; 4.12 with TX1BP3, O14907; 5.72 with SNX27, Q96L92; 4.67 in the experiment with SNTB1, Q13884.

B2: EXOC4, Q96A65 (peptide)
chain: ATKDKKITTV
Consider B2, for which the pKd is 3.88 with PDZD2_2, O15018; “below the threshold” with FRMPD2_3, Q68DX3; 4.91 in the experiment with MAGI1_2, Q96QZ7; “below the threshold” with LIN7C, Q9NUP9; 3.95 in the experiment with GRASP, Q7Z6J2; 3.95 with MPDZ_10, O75970. Also, the pKd is 3.54 in the experiment with LAP2, Q96RT1; 3.48 in the experiment with GRIP1_4, Q9Y3R0; 4.1 in the experiment with LNX1_2, Q8TBB1; 5.28 with DLG3_2, Q92796; “below the threshold” in the experiment with TIAM2, Q8IVF5; “below the threshold” with FRMPD2_2, Q68DX3. Besides, the pKd entry with LIN7B, Q9HAP6 was “below the threshold”; with APBA1_1, Q02410 it was “below the threshold”; with GRID2IP_2, A4D2P6, 3.98; in the experiment with Inadl_6, Q8NI35 it was 3.53; in the experiment with ARHGEF11, O15085, 4.38; with DVL3, Q92997, “below the threshold”. For the same molecule, the pKd entry with MPDZ_5, O75970 is “below the threshold”; in the experiment with PICK1, Q9NRD5, “below the threshold”; in the experiment with TX1BP3, O14907, 3.91; with SNX27, Q96L92, 4.38; in the experiment with SNTB1, Q13884, 4.34.

B3: FKBP4, Q02790 (peptide)
chain: GSQSQVETEA
For B3, the pKd result with PDZD2_2, O15018 was “below the threshold”; with FRMPD2_3, Q68DX3 it was “below the threshold”; with MAGI1_2, Q96QZ7, “below the threshold”; in the experiment with LIN7C, Q9NUP9, “below the threshold”; with GRASP, Q7Z6J2 it was 3.59; with MPDZ_10, O75970, “below the threshold”. Further, the pKd result is “below the threshold” with LAP2, Q96RT1; “below the threshold” with GRIP1_4, Q9Y3R0; “below the threshold” with LNX1_2, Q8TBB1; 4.2 with DLG3_2, Q92796; 4.04 with TIAM2, Q8IVF5; “below the threshold” with FRMPD2_2, Q68DX3. In addition, the pKd is 3.62 with LIN7B, Q9HAP6; “below the threshold” with APBA1_1, Q02410; 3.68 with GRID2IP_2, A4D2P6; “below the threshold” with Inadl_6, Q8NI35; “below the threshold” with ARHGEF11, O15085; “below the threshold” with DVL3, Q92997. In addition, the pKd result in the experiment with MPDZ_5, O75970 is “below the threshold”; in the experiment with PICK1, Q9NRD5 it was “below the threshold”; in the experiment with TX1BP3, O14907 it was “below the threshold”; with SNX27, Q96L92, “below the threshold”; with SNTB1, Q13884 it was “below the threshold”.
